In paper PMC3325216:

Columns and labels:
Assay in all cases: ELISA; wt or alanine-mutant E2 from 293T lysate captured by GNA on microtiter plates, amount normalised by CBH-17 binding; CD81-LEL added at 20 µg/ml; bound CD81-LEL detected with anti-CD81; percent relative to wt
[1] = biological target: H77C E1E2 mutant Y443A (hepatitis C virus genotype 1a, isolate H77C)
[2] = biological target: H77C E1E2 mutant N428A (hepatitis C virus genotype 1a, isolate H77C)
[3] = biological target: H77C E1E2 mutant K446A (hepatitis C virus genotype 1a, isolate H77C)

CD81 large extracellular loop fused to glutathione S-transferase (from UniProt P60033 1-236) (domain or fragment)
percent CD81 binding relative to wt [1]: 20%
percent CD81 binding relative to wt [2]: 10%
percent CD81 binding relative to wt [3]: 83%
